{
  "source": "paper PMC5543139",
  "target": "glucagon receptor on CHO-GCGR cells (human) (UniProt P47871)",
  "sequence (P47871 26-477)": "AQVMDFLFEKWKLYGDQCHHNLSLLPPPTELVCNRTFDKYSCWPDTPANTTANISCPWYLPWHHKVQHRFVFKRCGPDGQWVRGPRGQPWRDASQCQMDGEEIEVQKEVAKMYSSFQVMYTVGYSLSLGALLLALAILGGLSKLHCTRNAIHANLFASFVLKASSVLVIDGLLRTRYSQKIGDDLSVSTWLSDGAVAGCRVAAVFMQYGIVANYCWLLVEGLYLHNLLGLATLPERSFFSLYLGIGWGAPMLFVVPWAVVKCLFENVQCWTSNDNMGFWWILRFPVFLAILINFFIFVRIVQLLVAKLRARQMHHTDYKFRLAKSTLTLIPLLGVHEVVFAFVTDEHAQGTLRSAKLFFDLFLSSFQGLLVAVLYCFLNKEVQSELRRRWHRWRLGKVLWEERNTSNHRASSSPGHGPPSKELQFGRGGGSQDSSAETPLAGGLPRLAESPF",
  "test": "flow cytometry on live cells",
  "settings": "D-PBS pH 7.4, 5 mM MgCl2, 4.5 g/L glucose, 0.1 mg/mL yeast tRNA, 1 mg/L BSA; 4 C, 1 h (45 min in Results for Kd)",
  "note": "pKd: −log10 of the molar value.",
  "data": [
    {"sequence": "ATCCAGAGTGACGCAGCAGATAAGTAGGTATCCGTTTGAAAAACTTTTCTGACCGTCCGACTATGGACACGGTGGCTTAGT [GR-3]", "values": [
      {"measurement": "pKd", "value": 7.28}
    ]}
  ]
}
